From paper PMC10004559, “Identification of residues involved in allosteric signal transmission from amino acid binding site of pyruvate kinase muscle isoform 2” (PLOS ONE, 2023)

B1: PKM2 R106A (enzyme)
chain: not shown
notes: Pyruvate kinase muscle isoform 2 (PKM2), human, UniProt P14618, with R106A; cloned in pET28a; No tag cleavage is described
B2: PKM2 N75L (enzyme)
chain: not shown
notes: Pyruvate kinase muscle isoform 2 (PKM2), human, UniProt P14618, with N75L; cloned in pET28a; No tag cleavage is described
B3: PKM2 N70D (enzyme)
chain: not shown
notes: Pyruvate kinase muscle isoform 2 (PKM2), human, UniProt P14618, with N70D; cloned in pET28a; not shown: His6, N-terminal, kept

Target: the molecule itself
Assay: SEC; 0.1 mg/ml enzyme in storage buffer (20-50 mM Tris-HCl pH 7.5, 150 mM KCl, 5% glycerol, 0.5 mM EDTA) with 10 mM THP, incubated 15 min without or with 10 mM Asn/Asp/Val/Cys; Superdex 200 10/300 GL, 0.5 ml/min; self-association, tetramer against dimer/monomer

Stoichiometry N, 4:
B1
B2
B3
